From US20160362487A1 (Regeneron, published 2016)

Assays:
[1] = target: T1, cynomolgus monkey IL-33 expressed with a C-terminal hexahistidine tag (cynomolgus monkey); test: BLI; mAb-1 on captured MfIL-33-6His
T1 construct: also called MfIL-33-6His; Mf-IL-33-6His
T1 chain: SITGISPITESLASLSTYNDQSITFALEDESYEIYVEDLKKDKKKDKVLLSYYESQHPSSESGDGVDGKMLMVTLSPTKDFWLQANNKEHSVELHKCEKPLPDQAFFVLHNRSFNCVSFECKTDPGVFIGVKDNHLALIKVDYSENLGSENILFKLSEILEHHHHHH
Method: (§1) Binding competition between a panel of different anti-IL-33 monoclonal antibodies was determined using a real time, label-free bio-layer interferometry assay on an Octet® HTX biosensor (ForteBio, A Division of Pall Life Sciences). The experiment was performed at 25° C. using a buffer of 0.01M HEPES pH7.4, 0.15M NaCl, 3 mM EDTA, 0.05% v/v Surfactant Tween-20, and 0.1 mg/ml BSA (HBS-ET kinetics buffer) with the plate shaking at a speed of 1000 rpm. […] The antigen-captured biosensors were then saturated with a first anti-IL-33 monoclonal antibody (subsequently referred to as mAb-1) by immersion into wells containing 50 μg/mL solution of mAb-1 for 5 minutes. The biosensors were then dipped into wells containing a 50 μg/mL solution of a second anti-IL-33 monoclonal antibody (subsequently referred to as mAb-2) for 4 minutes. The biosensors were washed in HBS-ET kinetics buffer in between every step of the experiment. The real-time binding response was monitored during the experiment, and the maximum binding response for each binding step was recorded. The response of mAb-2 binding to MfIL-33-6His pre-complexed with mAb-1 was measured, and competitive/non-competitive behavior of different anti-IL-33 monoclonal antibodies with respect to each other was determined.

[2] = target: T2, human IL-33 (R&D Systems, #3625-IL-010/CF) (human, UniProt O95760 112-270); test: cell-based or functional assay
T2 sequence (looked up): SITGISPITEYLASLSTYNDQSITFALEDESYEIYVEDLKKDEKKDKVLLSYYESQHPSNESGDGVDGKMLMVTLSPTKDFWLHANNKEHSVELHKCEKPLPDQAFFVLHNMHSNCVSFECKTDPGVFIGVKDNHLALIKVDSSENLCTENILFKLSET

[3] = target: T1, cynomolgus monkey IL-33 expressed with …; test: cell-based or functional assay
[4] = target: T3, pre-formed complex of hIL-33 and captured hST2-MMH (human, UniProt O95760 112-270); test: SPR 25C, 100 nM mAb over hIL-33/hST2-MMH complex
T3 construct: Ligand-receptor complex on the sensor: hST2-MMH captured by anti-myc mAb and saturated with 100 nM hIL-33; also called hIL-33 pre-complexed with hST2-MMH
Method: The ability of anti-IL-33 antibodies to bind to a pre-formed complex of IL-33 with ST2 was tested using Biacore T-200 instrument equipped with a real-time surface plasmon resonance biosensor. The experiment was performed at 25° C. with a running buffer composed of 0.01M HEPES pH 7.4, 0.15M NaCl, 3 mM EDTA, and 0.05% v/v Surfactant Tween-20 (HBS-ET). […] The captured hST2-MMH surface was then saturated by injecting 100 nM of human IL-33 (hIL-33; R&D Systems, #3625-IL-010/CF) for 3 minutes followed by a 3 minute injection of a 100 nM solution of the anti-IL-33 monoclonal antibody. The real-time binding response was monitored during the entire course of the experiment, and the observed binding response at 3 minutes after injection of anti-IL-33 antibody to the pre-formed complex of hIL-33 and captured hST2-MMH was recorded and tabulated and shown in Table 7. No non-specific binding of anti-IL-33 monoclonal antibody to the anti-myc tag capture surface was observed.

[5] = target: T1, cynomolgus monkey IL-33 expressed with …; test: BLI; captured MfIL-33-6His, mAb-1 step with Buffer
Method: as §1

[6] = target: T1, cynomolgus monkey IL-33 expressed with …; test: BLI; captured MfIL-33-6His, mAb-1 step with Isotype control
Method: as §1

[7] = target: T2, human IL-33 (R&D Systems, …); test: SPR 25C pH7.4, mAb captured
Method: (§2) Equilibrium dissociation constants (KD values) for IL-33 binding to purified anti-IL-33 monoclonal antibodies were determined using a real-time surface plasmon resonance biosensor using a Biacore 4000 instrument. The Biacore sensor surface was first derivatized by amine coupling with either a polyclonal rabbit anti-mouse antibody (GE, # BR-1008-38) or with a monoclonal mouse anti-human Fc antibody (GE, # BR-1008-39) to capture anti-IL-33 monoclonal antibodies expressed with mouse or with human IgG4 constant regions, respectively. All Biacore binding studies were performed in 0.01M ADA pH 7.4, 0.15M NaCl, 3 mM EDTA, and 0.05% v/v Surfactant Tween-20 (ABS-ET running buffer). […] Association of either hIL-33 or MfIL-33-6His to the captured monoclonal antibody was monitored for 4 minutes and their dissociation in ABS-ET running buffer was monitored for 10 minutes. The effect of reduced pH on the binding of each anti-IL-33 antibody to either hIL-33 or MfIL-33-6His was studied using an in-line pH chase assay format in 0.01M ADA pH 6.0, 0.15M NaCl, 3 mM EDTA, and 0.05% v/v Surfactant Tween-20 (ABS-ET pH6 buffer). To achieve this, association of either hIL-33 or MfIL-33-6His to the captured monoclonal antibody was monitored for 4 minutes in ABS-ET running buffer. Following a 30 second dissociation of either hIL-33 or MfIL-33-6His in ABS-ET running buffer, ABS-ET pH6 buffer was injected for 3 minutes, and the analyte dissociation under the low-pH conditions was measured. All the binding kinetic experiments were performed at both 25° C. and 37° C. Kinetic association (kₐ) and dissociation (kd) constants were determined by fitting the real-time sensorgrams to a 1:1 binding model using Scrubber 2.0c curve fitting software. Binding dissociation equilibrium constants (KD) and dissociative half-lives (t½) were calculated from the kinetic rate constants as: […]

[8] = target: T1, cynomolgus monkey IL-33 expressed with …; test: SPR 25C pH7.4, mAb captured
Method: as §2

Binder | mAb-1 Binding (nm) [1] [nm] | IC50, inhibition of 10 pM hIL-33 activation of HEK293/hST2/NFkB-luciferase cells [2] [M] | IC50, inhibition of 5 pM MfIL-33-6His activation of HEK293/hST2/NFkB-luciferase cells [3] [M] | Antibody Binding Response (RU) [4] [RU] | mAb-2 Binding to the Pre-complex of mAb-1 & MfIL-33-6xHis [5] [nm] | mAb-2 Binding to the Pre-complex of mAb-1 & MfIL-33-6xHis [6] [nm] | Kd [7] [nM] | koff [7] [s⁻¹] | kon [7] [M⁻¹ s⁻¹] | t½ [7] [min] | Kd [8] [nM] | koff [8] [s⁻¹] | kon [8] [M⁻¹ s⁻¹] | t½ [8] [min]
H4H9670P (antibody, V domains shown, Human IgG4 Fc (H4H)) VH: EVQLVESGGGLVQPGGSLRLSCAASGFTLSSYAMSWVRQAPGKGLEWVSAISGSGGSTYYADSVKGRFTISRDNSKNSLYLQLNSLRAEDTAVYYCAKTLYTTSWYGGFQHWGQGTLVTVSS VL: DIQMTQSPSSVSASIGDRVTITCRASQGISSWLAWYQQKPGKVPKLLIYAASSLQSGFPSRFSGSGSGTDFTLTISSLQPEDFATYYCQQTHSFPWTVGQGTKVEIK | 0.56 | 1.2e-10 | 1.7e-08 | -1 | 0.3 | 0.23 | 0.368 | 0.000289 | 786000 | 40 | 4.77 | 0.0021 | 440000 | 6
H4H9672P (antibody, human IgG4, V domains shown, Human IgG4 Fc (H4H)) VH: EVQLVESGGGLVQPGGSLRLSCAASGFTLRSYVMYWVRQGPGKGLEGVSGISGSSGGTYYTDSVKGRFTISRDNSKNTLFLQMNSLRAEDTAVYFCARSVYSTTWYGGFQHWGQGTLVTVSS VL: DIQMTQSPSSVSVSVGDRVTITCRASQVISSWLAWYQLKPGKAPKLLIYAASSLQSGVPSRFSGSGSGTDFTLTISGLQPEDFAVYYCQQTNSFPLTFGGGTKVEIK | 0.56 | 2.5e-11 | 2e-08 | -1 | 0.3 | 0.25 | 0.527 | 0.000352 | 668000 | 33 | 8.22 | 0.0036 | 437000 | 3.2
H4H9666P (antibody, human IgG4, V domains shown, Human IgG4 Fc (H4H)) VH: QVQLVQSGAEVKKPGASVKVSCKASGYTFTSYGISWVRQAPGQGLEWMGWIRAYNGYTNYAQKFQGRVTMTTDTSTNTAYMELRTLNSDDTAVYYCARDRYSGSFHGNFDYWGQGTLVTVSS VL: DIQMTQSPSSVSASVGDRVTITCRASQGIFSWLAWYQQKPGKAPKVLIYAASNLESGVPSRFSGSGSGTDFTLTISSLQPEDFATYYCQQANSLPLTFGGGTKVEIK | 0.57 | 3.5e-11 | 7.8e-08 | -1 | 0.32 | 0.28 | 0.551 | 0.00028 | 508000 | 41 | 15.9 | 0.00354 | 222000 | 3.3
H4H9667P (antibody, human IgG4, V domains shown, Human IgG4 Fc (H4H)) VH: EVQLVESGGGLVQPGGSLRLSCAASGFTFSTYSMHWVRQAPGKGLEYVSTINNNGDTTYYADSVKGRFTISRDNSKNTLYLQLGSLRPEDMAVYYCARQTYTSSWYGGFDSWGQGTLVTVSS VL: DIQMTQSPSSVSASVGDRVTITCRASQGITSWLAWYQQKPGKAPKLLIYAASNLQSGVPSRFSGSGSGTDFTLTITSLQPEDFATYYCQQANSLPFTFGPGTKVDIK | 0.5 | 7.1e-11 | 1.2e-08 | -1 | 0.3 | 0.26 | 0.395 | 0.000252 | 637000 | 46 | 2.89 | 0.000991 | 343000 | 12
H4H9675P (antibody, human IgG4, V domains shown, Human IgG4 Fc (H4H)) VH: EVQLVESGGNLEQPGGSLRLSCTASGFTFSRSAMNWVRRAPGKGLEWVSGISGSGGRTYYADSVKGRFTISRDNSKNTLYLQMNSLSAEDTAAYYCAKDSYTTSWYGGMDVWGHGTTVTVSS VL: DIQMTQSPSSVSASVGDRVTITCRASQGIFSWLAWYQQKPGKAPKLLIYAASSLQSGVPSRFSGSGSGTDFTLTISSLQPEDFAIYYCQQANSVPITFGQGTRLEIK | 0.52 | 7.5e-12 | 4.1e-09 | -1 | 0.31 | 0.26 | 0.254 | 0.000258 | 1.02e+06 | 45 | 2.55 | 0.00129 | 506000 | 9
H4H9671P (antibody, human IgG4, V domains shown, Human IgG4 Fc (H4H)) VH: EVQLVESGGGLVQPGGSLRLSCAASGFTLRSYFMTWVRQVPGKGLEGVSAISGISGGTYYTDSVKGRFTISRDNSKNTLFLQMNSLRAEDTAVYFCARTVYSSSYYGGFQHWGQGTLVTVSS VL: DIQMTQSPSSVSVSVGDRVTITCRASQGISSWLAWYQQKPGKAPKLLIYVASSLQSGVPSRFSGSGSGTDFTLTISSLQPEDFATYYCQQTNSFPLTFGGGTKVEIK | 0.58 | 2.5e-11 | 4.8e-09 | -1 | 0.29 | 0.26 | 0.453 | 0.000349 | 771000 | 33 | 2.55 | 0.0015 | 587000 | 8
